# Where two headings read alike, the source gives them in different places.
# T1: IL-2 receptor overexpressed on HEK-Blue IL-2 reporter cells (InvivoGen) (UniProt P01589 22-272; P14784 27-551; P31785 23-369, limits assumed)
# T1 sequence (looked up) 1: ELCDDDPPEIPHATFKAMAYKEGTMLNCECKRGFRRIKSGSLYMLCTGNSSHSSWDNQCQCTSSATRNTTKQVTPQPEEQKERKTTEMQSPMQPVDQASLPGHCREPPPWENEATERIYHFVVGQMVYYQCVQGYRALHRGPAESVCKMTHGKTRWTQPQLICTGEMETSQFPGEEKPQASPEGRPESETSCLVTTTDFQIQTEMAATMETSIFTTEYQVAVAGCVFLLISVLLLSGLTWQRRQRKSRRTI
# T1 sequence (looked up) 2: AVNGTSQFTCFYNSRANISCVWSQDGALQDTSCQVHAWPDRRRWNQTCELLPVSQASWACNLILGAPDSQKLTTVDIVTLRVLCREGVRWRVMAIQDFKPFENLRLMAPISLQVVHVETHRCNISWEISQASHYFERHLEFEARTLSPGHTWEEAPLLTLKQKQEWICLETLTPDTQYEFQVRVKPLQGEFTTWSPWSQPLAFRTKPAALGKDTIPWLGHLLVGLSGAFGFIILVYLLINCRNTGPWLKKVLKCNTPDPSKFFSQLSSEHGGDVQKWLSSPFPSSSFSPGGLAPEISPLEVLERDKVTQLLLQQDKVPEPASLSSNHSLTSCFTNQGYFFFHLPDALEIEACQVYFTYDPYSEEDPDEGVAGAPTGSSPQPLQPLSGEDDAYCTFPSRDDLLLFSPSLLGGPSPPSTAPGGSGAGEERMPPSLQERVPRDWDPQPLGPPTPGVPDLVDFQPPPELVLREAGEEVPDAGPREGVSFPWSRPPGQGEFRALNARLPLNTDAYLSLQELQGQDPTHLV
# T1 sequence (looked up) 3: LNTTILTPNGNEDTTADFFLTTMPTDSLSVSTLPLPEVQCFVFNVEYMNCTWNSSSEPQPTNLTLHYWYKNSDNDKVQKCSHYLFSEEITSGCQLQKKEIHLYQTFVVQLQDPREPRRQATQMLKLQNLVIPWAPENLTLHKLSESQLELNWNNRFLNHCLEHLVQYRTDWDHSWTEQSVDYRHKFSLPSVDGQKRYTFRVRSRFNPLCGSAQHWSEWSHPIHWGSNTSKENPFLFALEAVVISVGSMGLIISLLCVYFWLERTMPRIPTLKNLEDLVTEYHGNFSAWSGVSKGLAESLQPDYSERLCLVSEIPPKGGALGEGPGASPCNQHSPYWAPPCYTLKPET
# T2: Histidine-tagged CD25 (UniProt P01589 22-217, limits assumed)
# T2 construct: Immobilized in Biolayer Interferometry (ForteBio); not shown: histidine tag
# T2 sequence (looked up): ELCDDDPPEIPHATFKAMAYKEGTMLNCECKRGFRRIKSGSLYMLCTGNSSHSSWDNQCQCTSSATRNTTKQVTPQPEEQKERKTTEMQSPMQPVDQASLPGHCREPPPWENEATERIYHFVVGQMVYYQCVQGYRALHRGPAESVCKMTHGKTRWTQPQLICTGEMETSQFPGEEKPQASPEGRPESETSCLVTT
# Tests used:
# [1] = target: T3, PD-1 expressed on modified HEK-Blue IL-2 reporter cell clones (UniProt Q15116 25-288, limits assumed); assay: cell-based or functional assay
# [2] = target: T1, IL-2 receptor overexpressed on HEK-Blue …; assay: cell-based or functional assay
# Histidine-tagged CD25 = target: T2, Histidine-tagged CD25; assay: Biolayer Interferometry (ForteBio), immobilized His-tagged CD25
# Experimental: Polypeptides comprising a modified IL-2 fused to the C-terminus of a PD-1 binding VHH and control polypeptides were tested for binding to CD25 using Biolayer Interferometry (ForteBio).
# [3] = target: trimeric IL-2 receptor on HEK-Blue IL-2 reporter cells (UniProt P01589); assay: cell-based or functional assay
# [4] = target: IL-2 receptor together with PD-1 on HEK-Blue IL-2 reporter cells expressing PD-1 (UniProt P01589); assay: cell-based or functional assay
# [5] = target: trimeric IL-2 receptor (CD25, CD122, CD132) on HEK-Blue IL-2 reporter cells (UniProt P01589); assay: cell-based or functional assay
# [6] = target: T1, IL-2 receptor overexpressed on HEK-Blue …; assay: cell-based or functional assay; remark: listed apart in the source
# [7] = target: T3, PD-1 expressed on modified HEK-Blue …; assay: cell-based or functional assay; remark: listed apart in the source
# [8] = target: T1, IL-2 receptor overexpressed on HEK-Blue …; assay: cell-based or functional assay; remark: listed apart in the source
# [9] = target: T3, PD-1 expressed on modified HEK-Blue …; assay: cell-based or functional assay; remark: listed apart in the source
# [10] = target: T1, IL-2 receptor overexpressed on HEK-Blue …; assay: cell-based or functional assay; remark: listed apart in the source
# [11] = target: T3, PD-1 expressed on modified HEK-Blue …; assay: cell-based or functional assay; remark: listed apart in the source
# [12] = target: T1, IL-2 receptor overexpressed on HEK-Blue …; assay: cell-based or functional assay; remark: listed apart in the source
# [13] = target: T3, PD-1 expressed on modified HEK-Blue …; assay: cell-based or functional assay; remark: listed apart in the source
# [14] = target: T1, IL-2 receptor overexpressed on HEK-Blue …; assay: cell-based or functional assay; remark: listed apart in the source
# [15] = target: T3, PD-1 expressed on modified HEK-Blue …; assay: cell-based or functional assay; remark: listed apart in the source
# [16] = target: T3, PD-1 expressed on modified HEK-Blue …; assay: cell-based or functional assay; remark: listed apart in the source
# [17] = target: T1, IL-2 receptor overexpressed on HEK-Blue …; assay: cell-based or functional assay; remark: listed apart in the source
# T3 sequence (Q15116 25-288 limits assumed): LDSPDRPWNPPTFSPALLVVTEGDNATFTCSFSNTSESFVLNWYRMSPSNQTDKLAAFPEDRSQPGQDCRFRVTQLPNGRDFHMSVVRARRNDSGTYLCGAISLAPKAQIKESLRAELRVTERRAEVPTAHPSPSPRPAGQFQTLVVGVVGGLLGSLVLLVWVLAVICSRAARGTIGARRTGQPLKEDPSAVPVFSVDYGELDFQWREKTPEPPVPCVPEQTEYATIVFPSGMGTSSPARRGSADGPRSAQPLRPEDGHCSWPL
# Sequence of IL-2 receptor together with PD-1 on HEK-Blue IL-2 reporter cells expressing PD-1 (Q15116 25-288 limits assumed): as above
"EC50 (nM), IL-2 reporter cells expressing PD-1 [1]","EC50 (nM), HEK-Blue IL-2 reporter cells lacking PD-1 [2]",binding result (Histidine-tagged CD25),Binder,also measured
0.005 nM,4.2 nM,no binding (tested: 300 nM),"polypeptide comprising modified IL-2 (T3A, H16A, Δ42, P65R, D84S, C125S) fused to the C-terminus of a PD-1-binding VHH (other, not shown: a dimerising Fc or GST; small tags and cut ends, also called IL-2-T3A-H16A-ΔF42-P65R-D84S-C125S) APASSSTKKTQLQLEALLLDLQMILNGINNYKNPKLTRMLTKFYMPKKATELKHLQCLEEELKRLEEVLNLAQSKNFHLRPRSLISNINVIVLELKGSETTFMCEYADETATIVEFLNRWITFSQSIISTLT",
0.002 nM,3.2 nM,no binding (tested: 300 nM),"polypeptide comprising modified IL-2 (T3A, H16A, E61R, P65R, D84S, C125S) fused to the C-terminus of a PD-1-binding VHH (other, not shown: a dimerising Fc or GST; small tags and cut ends) APASSSTKKTQLQLEALLLDLQMILNGINNYKNPKLTRMLTFKFYMPKKATELKHLQCLERELKRLEEVLNLAQSKNFHLRPRSLISNINVIVLELKGSETTFMCEYADETATIVEFLNRWITFSQSIISTLT",Non-targeted EC50 [3]: 3.18 nM; PD-1 Targeted EC50 [4]: 0.002 nM; PD-1 Window [4]: 1570
,,,"polypeptide comprising modified IL-2 (T3A, H16A, E61R, P65R, D84Y, C125S) fused to the C-terminus of a CD8a-binding VHH (protein, part only; not given: CD8a-binding VHH and any linker or Fc, part only) chain, part: APASSSTKKTQLQLEALLLDLQMILNGINNYKNPKLTRMLTFKFYMPKKATELKHLQCLERELKRLEEVLNLAQSKNFHLRPRYLISNINVIVLELKGSETTFMCEYADETATIVEFLNRWITFSQSIISTLT","CD8a Targeted EC50, IL-2 reporter cells expressing CD8a (secreted alkaline phosphatase) [5]: 0.011 nM; Non-targeted EC50, HEK-Blue IL-2 reporter cells lacking PD-1, NKp46 and CD8a (secreted alkaline phosphatase) [5]: 4.51 nM"
0.001 nM,1.1 nM,no binding (tested: 300 nM),"polypeptide comprising modified IL-2 (T3A, H16A, K43E, P65R, D84S, C125S) fused to the C-terminus of a PD-1-binding VHH (other, not shown: a dimerising Fc or GST; small tags and cut ends) APASSSTKKTQLQLEALLLDLQMILNGINNYKNPKLTRMLTFEFYMPKKATELKHLQCLEEELKRLEEVLNLAQSKNFHLRPRSLISNINVIVLELKGSETTFMCEYADETATIVEFLNRWITFSQSIISTLT",
0.003 nM,2.1 nM,,"polypeptide comprising modified IL-2 (T3A, H16A, F42R, P65R, D84S, C125S) fused to the C-terminus of a PD-1-binding VHH (other, not shown: a dimerising Fc or GST; small tags and cut ends) APASSSTKKTQLQLEALLLDLQMILNGINNYKNPKLTRMLTRKFYMPKKATELKHLQCLEEELKRLEEVLNLAQSKNFHLRPRSLISNINVIVLELKGSETTFMCEYADETATIVEFLNRWITFSQSIISTLT",
0.001 nM,0.9 nM,,"polypeptide comprising modified IL-2 (T3A, H16A, P65R, D84S, C125S) fused to the C-terminus of a PD-1-binding VHH (other, not shown: a dimerising Fc or GST; small tags and cut ends) APASSSTKKTQLQLEALLLDLQMILNGINNYKNPKLTRMLTFKFYMPKKATELKHLQCLEEELKRLEEVLNLAQSKNFHLRPRSLISNINVIVLELKGSETTFMCEYADETATIVEFLNRWITFSQSIISTLT","EC50 (nM), HEK-Blue IL-2 reporter cells lacking PD-1 [6]: 0.9 nM; EC50 (nM), HEK-Blue IL-2 + PD-1 [7]: 0.001 nM; EC50 (nM), HEK-Blue IL-2 [8]: 0.512 nM; EC50 (nM), HEK-Blue IL-2 + PD-1 [9]: 0.001 nM; EC50 (nM), HEK-Blue IL-2 [10]: 0.512 nM; EC50 (nM), HEK-Blue IL-2 + PD-1 [11]: 0.003 nM; EC50 (nM), HEK-Blue IL-2 [12]: 0.3 nM; EC50 (nM), HEK-Blue IL-2 + PD-1 [13]: 0.001 nM; EC50 (nM), HEK-Blue IL-2 [14]: 0.512 nM; EC50 (nM), IL-2 reporter cells expressing PD-1 [15]: 0.001 nM; EC50 (nM), HEK-Blue IL-2 + PD-1 [16]: 0.003 nM; EC50 (nM), HEK-Blue IL-2 [17]: 0.3 nM"
0.002 nM,1.4 nM,no binding (tested: 300 nM),"polypeptide comprising modified IL-2 (T3A, H16A, P65R, D84S, I114F, C125S) fused to the C-terminus of a PD-1-binding VHH (other, not shown: a dimerising Fc or GST; small tags and cut ends) APASSSTKKTQLQLEALLLDLQMILNGINNYKNPKLTRMLTFKFYMPKKATELKHLQCLEEELKRLEEVLNLAQSKNFHLRPRSLISNINVIVLELKGSETTFMCEYADETATFVEFLNRWITFSQSIISTLT",
0.002 nM,2 nM,no binding (tested: 300 nM),"polypeptide comprising modified IL-2 (T3A, H16A, R38A, P65R, D84S, C125S) fused to the C-terminus of a PD-1-binding VHH (other, not shown: a dimerising Fc or GST; small tags and cut ends) APASSSTKKTQLQLEALLLDLQMILNGINNYKNPKLTAMLTFKFYMPKKATELKHLQCLEEELKRLEEVLNLAQSKNFHLRPRSLISNINVIVLELKGSETTFMCEYADETATIVEFLNRWITFSQSIISTLT",Non-targeted EC50 [3]: 1.97 nM; PD-1 Targeted EC50 [4]: 0.002 nM; PD-1 Window [4]: 978
0.002 nM,1.5 nM,no binding (tested: 300 nM),"polypeptide comprising modified IL-2 (T3A, H16A, K43E, Y45R, P65R, D84S, C125S) fused to the C-terminus of a PD-1-binding VHH (other, not shown: a dimerising Fc or GST; small tags and cut ends) APASSSTKKTQLQLEALLLDLQMILNGINNYKNPKLTRMLTFEFRMPKKATELKHLQCLEEELKRLEEVLNLAQSKNFHLRPRSLISNINVIVLELKGSETTFMCEYADETATIVEFLNRWITFSQSIISTLT",
